Experimental data from patent US20240245805A1 (Orna Therapeutics, Inc., priority 2020, published 2024).

B1: Rodent pegivirus (nucleic acid, listed as Pegivirus sp.)
DNA: GGACTTCGGTCCCCCTGTTACTCTGCGAGCCACCGCAGAGCCAGGGTTGGTACGCCCGAGGTGTTAGACCCCGGCCGAAAGCTCCTAACCATGGGGTTAGTAGGACGTGGTAAATGCCACTGAGGGGTTGGAGAGCTGGTAGAGCGAGTAAGTCGGCGTAAGGCCCGAGTACGGGCCTCCCAGCCCGGGTCAGCCTAAACCTGGCTGTGATACCCGGTGCATGGAGGGCGTGTCCCAACGCTCGATCGCTGTAGGGTGGGTCCCTGCAGTTGGGTGTGGCTACCCTGCTCGTACTGCTTGATAGAGTCCCGGCGGACGGACCAGCTCTCGTCAGTCCGTGGAGTTGCAC
modifications: lipid formulation
B2: Human pegivirus 2: "an IRES is an IRES sequence of ... Human Pegivirus 2" (nucleic acid, listed as Pegivirus sp.)
DNA: AACTGTTGTTGTAGCAATGCGCATATTGCTACTTCGGTACGCCTAATTGGTAGGCGCCCGGCCGACCGGCCCCGCAAGGGCCTAGTAGGACGTGTGACAATGCCATGAGGGATCATGACACTGGGGTGAGCGGAGGCAGCACCGAAGTCGGGTGAACTCGACTCCCAGTGCGACCACCTGGCTTGGTCGTTCATGGAGGGCATGCCCACGGGAACGCTGATCGTGCAAAGGGATGGGTCCCTGCACTGGTGCCATGCGCGGCACCACTCCGTACAGCCTGATAGGGTGGCGGCGGGCCCCCCCAGTGTGACGTCCGTGGAGCGCAAC
B3: Equine hepacivirus (nucleic acid, listed as Hepacivirus sp.)
chain: ACCTCCGTGCTATGCACGGTGCGTTGTCAGCGTTTTGCGCTTGCATGCGCTACACGCGTCGTCCAACGCGGAGGGATTCTTCCACATTACCATGTGTCACTCCCCCTATGGAGGGTTCCACCCCGCCCACACGGAAATAGGTTAACCATACCTATAGTACGGGTGAGCGGGTCCTCCTAGGGCCCCCCCGGCAGGTCGAGGGAGCTGAAATTCGTGAATCCGTGAGTACACGGAAATCGCGGCTTGAACGTCATACGTGACCTTCGGAGCCGAAATTTGGGCGTGCCCCACGAAGGAAGGCGGGGGCGGTGTTGGGCCGCCGCCCCCTTTATCCCACGGTCTGATAGGATGCTTGCGAGGGCACCTGCCGGTCTCGTAGACCATAGGAC
modifications: lipid formulation
B4: Icavirus (nucleic acid)
DNA: CGAAGTTTAAGCTAAGCACCCTCGGGCGTTCCCGGATTATGTGATCACATCAATTTGATGGCTGGTCACCACGCAACGCCTGGAGAGATACTCTTACTTTTCTCTTAAGATCCCCGGTCATTTGACGCTTGTAGGATGATAGGGTTATTTTCCACTATAAATACTTTCATACTCTTGGATGTTCTATATCCAAGACGGGAGGACCTACCCCGTACCCCTTAGAGGTGAGATGCCAAGAACAGGCCCTTTCTGTTCTCTCGACAATGGCATCATAGGCAACAAGCATCACACCAAGATTGCTAAGTTTTGTTAAGAGTTCTTCAAGCTATAGGGTGGCTGTAGCGACCTTCTGATGCCTGCGGATTTCCCCACGGAGCGATCCGTGCCACAGGGGCCAAAAGCCACGGCTAACGCCCATCAGGAGCGGCACTTACCCCGTGCCCCACCCTTGAAACTTGAATGTTCACACTGGCTTCTCTCGGCTTTCTGAACTGTCTGCTTGTTGGGGCCCCGAAGGATGCCCTGGAGGTACCCCATTTTATGGGATCTGACCAGGGGACACCTCAGCTCTCTAAGTTGCTGGTGTTTAAAAAACGTCTAAGGGCCCCCACCCCTTAGGTGGAGGGATCCACCTTTCCTTTATTTTTTAAAACTCTTTTATGGTCACAATTGTTT
modifications: source: /note="Description of Unknown: Icavirus sequence"
B5: GB virus C/Hepatitis G virus (nucleic acid)
chain: CCCCCGGCACTGGGTGCAAGCCCCAGAAACCGACGCCTATCTAAGTAGACGCAATGACTCGGCGCCGACTCGGCGACCGGCCAAAAGGTGGTGGATGGGTGATGACAGGGTTGGTAGGTCGTAAATCCCGGTCACCTTGGTAGCCACTATAGGTGGGTCTTAAGAGAAGGTTAAGATTCCTCTTGTGCCTGCGGCGAGACCGCGCACGGTCCACAGGTGTTGGCCCTACCGGTGGGAATAAGGGCCCGACGTCAGGCTCGTCGTTAAACCGAGCCCGTTACCCACCTGGGCAAACGACGCCCACGTACGGTCCACGTCGCCCTTCAATGTCTCTCTTGACCAATAGGCGTAGCCGGCGAGTTGACAAGGACCAGTGGGGGCCGGGGGCTTGGAGAGGGACTCCAAGTCCCGCCCTTCCCGGTGGGCCGGGAAATGC
modifications: lipid formulation; source: /note="Description of Unknown: GB virus C/Hepatitis G virus sequence"
B6: Theiler's disease-associated virus (nucleic acid)
DNA: TGATACCGTGTCCCGGTACGACCTCGCGCGTCCCCAAGCTCGCCCTGAGGGGGGAGCGTAAGGGCGCGTAGTGGGGTAGCCCCCCAAACCGAGCCACCCTAGTGAGTGACTTTAGAATGGTTAGGGAGACTACCGCCTTCGCTGTTTGGGGACCTAATGATCCGCGTGCCAGGGTTCTTCGGGTAAATCCCGGCGCGGTGTTTTGGGTTCAGGGCAGTAGGGGCAGACGGGCCAGCAGTCGCTGGTTCCTGGTACCACCACCCTATCCGGACGACCTCCCTCACGAAAGGTCGCCACGGTCTGTGGCTCGACGACGCCTATAATTCAGTCCGAGGGGCGCAGCCCTCGTTAAACTTAGGCAAGGTTCCTCGCCATTGATTTGGCCAGGGGTTTAAGTGAACGCCGCCCTTTTAATGTTTAATAGGGTTCTTTCCCGGCGGGTTGACAAACACTTCCCTGGGCTCTTCGTTGGCCTCGGTTCCTTGATGCTTCGGCACCCATGAGCGCACAGGGGGGGGACCCTGCGACAGTCCGCCAAGAGGAAAATCCTTCGGGTGACCTCGTGCGCAACCCAATCCCTTCTTCTTCCACATGGCGTGTCTGTGGTGCATGCTGTG
modifications: lipid formulation; source: /note="Description of Unknown: Theiler's disease-associated virus sequence"
B7: Hepacivirus B (nucleic acid)
DNA: ACCACAAACACTCCAGTTTGTTACACTCCGCTAGGAATGCTCCTGGAGCACCCCCCCTAGCAGGGCGTGGGGGATTTCCCCTGCCCGTCTGCAGAAGGGTGGAGCCAACCACCTTAGTATGTAGGCGGCGGGACTCATGACGCTCGCGTGATGACAAGCGCCAAGCTTGACTTGGATGGCCCTGATGGGCGTTCATGGGTTCGGTGGTGGTGGCGCTTTAGGCAGCCTCCACGCCCACCACCTCCCAGATAGAGCGGCGGCACTGTAGGGAAGACCGGGGACCGGTCACTACCAAGGACGCAGACCTCTTTTTGAGTATCACGCCTCCGGAAGTAGTTGGGCAAGCCCACCTATATGTGTTGGGATGGTTGGGGTTAGCCATCCATACCGTACTGCCTGATAGGGTCCTTGCGAGGGGATCTGGGAGTCTCGTAGACCGTAGCAC
modifications: Hepacivirus B
B8: Antarctic penguin virus A (nucleic acid)
DNA: CTAGGAGACTACGCAGTGGGATAAGATGACTATGATGTCGTACGGGCAGAAGCCAGTACAGTCGAAGTCGAGACCGACGTCGAGGATTTGACTCTGCCTGACCTAGTGCCATC
modifications: chemistry not fully specified; the letters are possibly those of the target site
B9: Sakobuvirus A FFUP1 (1x mut) (nucleic acid)
DNA: TCACGCGCTTTTCCGGTGGTCACCCACCGTTAGGGAGCGCCAGCGTTCGCGCTTCCGCTACCAGGTGACACACTCCTTTCCCCTCCCCCATTCCCGTTCCCATCCTCTGGACTGGTTTCTCCTCACGATTGACCAGCAGCTGGGAGCTGTTACCAGACGTTGGACAGTAAGTCCCGGATGCACTATAGGGCTGGTGGCTAGTGCTTGGTAAGCACTCAACGCCATACCTAATGTGTACCTCGGCTTGCCCTCCTGGTCGTGGTGACCGGCTGTTTCTCTTCCCTTGGCTCCAGACGGGCTGGTGTCCTACCACCACCGTTGCATGCAGACCTCCCCCTGCGCACTCGAACGCCCTGTCCCAGCAGGGTTAGTATGTGCTGTGCAGATCTGCATGTGACACCCCATCCACTGGTAGAGCAGGAAGTTGCCCTAGCTAACGCGGCAAGTATTACTTTCCGCTACACGTCCTTGAGATTCCTCGGACCTCTGGAACTAGGGTGACTGTGGGCTTGGGAAAACCCACCTTGGTCCTGTACTGCCTGATAGGGTCGCGGCTGGCCGACCAGTGGATGTAGCCAGTTGTTTTGGGAT
modifications: lipid formulation
B10: Yokose virus (nucleic acid, listed as Yokose virus)
DNA: AGTAAATTTTGCGTGCTAGTCGCTGAGCGTCAGACCGCAAAGTGAGTTTTTAGTGATCTAAAGTGAGGAGTTATTCTTACTGTCATCAAACACTACAAATAAACACGTTGAAATTATTTCCGGAAGAACAACTGTCCGGAATCAAAGACG
modifications: lipid formulation
B11: Zika Virus (nucleic acid, listed as Zika virus)
DNA: AGTTGTTGATCTGTGTGAGTCAGACTGCGACAGTTCGAGTCTGAAGCGAGAGCTAACAACAGTATCAACAGGTTTAATTTGGATTTGGAAACGAGAGTTTCTGGTC
modifications: chemistry not fully specified; the letters are possibly those of the target site

Tested on: HEK293 cells
Format: cell-based, human
Conditions: circular RNA encoding Gluc with the listed IRES (UTR truncated to 675 nt) transfected into HEK293 cells; supernatant after 24 hours

In order of rising “Expression (luminescence from secreted Gluc protein)” value:
1. B6  7.84E+04
2. B3  8.40E+04
3. B8  8.42E+04
4. B10  8.55E+04
5. B11  8.61E+04
6. B7  8.84E+04
7. B5  1.36E+05
8. B1  1.79E+05
9. B2  3.14E+05
10. B4  4.41E+06
11. B9  8.82E+06
